The values that follow come from patent US20170158757A1 (Bristol-Myers Squibb, published 2017).

One may read the koff as the rate constant with which the complex falls apart. Usually kon stands for the second-order rate constant of association. What is called Kd is a measure of binding affinity in units of concentration.

Changes are numbered by the printed parent chain.

In one assay the target is T1, human ITAC (human, UniProt O14625 22-94).
T1 construct: also called interferon-inducible T cell alpha chemoattractant; CXCL11
T1 sequence: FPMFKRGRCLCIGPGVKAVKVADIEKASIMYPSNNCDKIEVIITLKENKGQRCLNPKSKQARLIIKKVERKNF
In words: Biacore SPR. (In general: In SPR one partner is held on a chip, and binding of the other changes the refractive index at the surface.)

Assay [1] addresses T2, human IP-10 (human, UniProt P02778 22-98).
T2 sequence: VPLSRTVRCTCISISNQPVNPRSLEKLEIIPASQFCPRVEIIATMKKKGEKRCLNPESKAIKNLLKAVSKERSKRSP
The experiment in a line: cell-based or functional assay.

The target of assay [2] is T3, cynomolgus monkey IP-10 (cynomolgus monkey, UniProt A0A2K5WKN6 22-98).
T3 sequence: T2 sequence with V1I, A32P, R38H
In words: cell-based or functional assay.

The target of assay [3] is T2, human IP-10. The experiment in a line: Biacore kinetic analysis.
In assay [4] the target is T2, human IP-10. In words: Biacore SPR, huIP-10.
Assay [5] concerns the target T3, cynomolgus monkey IP-10. The experiment in a line: Biacore SPR, cynoIP-10.
In assay [6] the target is T2, human IP-10. The experiment in a line: Biacore-based binding studies.
The target of a further assay is T4, mouse IP-10 (mouse, UniProt P17515 22-98).
T4 sequence: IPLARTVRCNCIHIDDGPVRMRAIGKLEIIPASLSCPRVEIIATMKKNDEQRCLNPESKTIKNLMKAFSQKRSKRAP
In words: Biacore-based binding studies.

The target in assay [7] is T3, cynomolgus monkey IP-10. In words: cell-based or functional assay. This is another data set of the same source.
Assay [8] addresses T2, human IP-10. The experiment in a line: SPR (Biacore) at 37 C, IgG1, human IP-10.
Assay [9] concerns the target T3, cynomolgus monkey IP-10. In words: in vivo Kd estimated by PK/PD modeling in cynomolgus monkeys.
The target of assay [10] is T2, human IP-10. The experiment in a line: whole cell binding assays with I125-IP-10 (CXCR3/300.19 and KM12SM cells).
Assay [11] addresses T2, human IP-10. The experiment in a line: Biacore SPR, huIP-10 (text: limit of detection with the Biacore is 90 pM).
Assay [12] concerns the target T5, human MIG (human, UniProt Q07325 23-125).
T5 construct: also called monokine induced by gamma interferon; CXCL9
T5 sequence: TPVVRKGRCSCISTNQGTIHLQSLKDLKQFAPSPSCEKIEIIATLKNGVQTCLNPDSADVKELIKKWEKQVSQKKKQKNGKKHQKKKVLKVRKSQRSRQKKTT
The experiment in a line: Biacore SPR, MIG; Biacore, lot 3007: weak measured KD for MIG, about 17000 times weaker than for huIP-10 (0.01 nM).

Assay [13] concerns the target T3, cynomolgus monkey IP-10. In words: in vivo Kd estimated by PK/PD modeling of free drug, free and total serum IP-10 in cynomolgus monkeys; in vivo Kd from PK/PD modeling in cynomolgus monkeys, not a direct binding assay.
Assay [14] concerns the target T5, human MIG. The experiment in a line: Biacore SPR, MIG.
Assay [15] concerns the target T5, human MIG. In words: Biacore SPR.
Assay [16] addresses T2, human IP-10. In words: SPR (Biacore) at 37 C, IgG1, human IP-10 (second row for IP10.1g1f).

B1: IP10.44 (antibody, human IgG1, kappa, V domains shown)
VH: QVQLVESGGGVVQPGRSLRLSCAASGFTFSEYGMHWVRQAPGKGLEWVAVIGFAGLIKGYADSVKGRFTISRDNSKNTLYLQMNSLRAEDTAVYYCAREGAGSNIYYYYGMDVWGQGTTVTVSS
VL: not shown
notes: Human IgG1 full-length antibody; also called BMS-986184; IP10.44-g1f
In the case of B1, the binding result with human ITAC and in the assay with mouse IP-10 was “no binding” throughout. The “fold better potency than IP10.1, IL-6 secretion by hPBMCs” value with human IP-10 [1] was roughly 6 fold. The “fold greater potency relative to IP10.1, IL-12p40 secretion by hPBMCs” value with human IP-10 [1] amounted to 4 fold. Also, in the assay with cynomolgus monkey IP-10 [2], the “IC50 of free serum IP-10 suppression against free drug concentration in cynomolgus monkeys” value was 0.223 nM. The “estimated t1/2 (half-life of IP-10 association)” value with human IP-10 [3] was greater than 100 h. In addition, the off-rate (koff) with human IP-10 [4] worked out at 1e-07 s⁻¹; in the assay with human IP-10 [8] it was 4e-06 s⁻¹. Further, the figures for the kon with human IP-10 [4] and with human IP-10 [8] were 11600 M⁻¹ s⁻¹ and 26200 M⁻¹ s⁻¹, respectively. The Kd was 0.2 nM with cynomolgus monkey IP-10 [5]; 0.17 nM in the assay with human IP-10 [8]; 0.01 nM with human IP-10 [11]; 168 nM in the assay with human MIG [12]; 0.043 nM in the assay with cynomolgus monkey IP-10 [13]. In addition, the “fold improvement of KD against IP10.1” value with human IP-10 [6] is no less than 50 fold. Further, the “IC50 (read off the curve)” value in the assay with cynomolgus monkey IP-10 [7] is roughly 0.3 nM. The “fold more potent than IP10.1 (in vivo Kd)” value with cynomolgus monkey IP-10 [9] was roughly 150 fold. Besides, the “fold better potency than IP10.1 in blocking IP-10 binding to cells” value in the assay with human IP-10 [10] is no less than 5 fold.

B2: IP10.46 (antibody, human IgG1, kappa, V domains shown)
VH: B1 VH with A23T, E31Q, G52S, F53Y, A54G, L56D, G59Y, A101E
VL: not shown
notes: IgG1 full-length variant of IP10.1; also called IP10.46-g1f
On to B2, for which the binding result with human ITAC is recorded as “no binding”. The Kd in the assay with human MIG [14] was determined as 77.5 nM; in the assay with human IP-10 [4] it was 0.11 nM; with cynomolgus monkey IP-10 [5], 0.19 nM; with human IP-10 [8] it was 0.12 nM. Also, the figures for the koff with human IP-10 [4] and with human IP-10 [8] were 1e-06 s⁻¹ and 2e-06 s⁻¹, respectively. Further, the association rate constant (kon) in the assay with human IP-10 [4] came to 9600 M⁻¹ s⁻¹; in the assay with human IP-10 [8] it was 13500 M⁻¹ s⁻¹.

B3: IP10.43 (antibody, human IgG1, kappa, V domains shown)
VH: B1 VH with A23T, E31S, G52D, A54V, L56D, I57T, G59Y, A61T
VL: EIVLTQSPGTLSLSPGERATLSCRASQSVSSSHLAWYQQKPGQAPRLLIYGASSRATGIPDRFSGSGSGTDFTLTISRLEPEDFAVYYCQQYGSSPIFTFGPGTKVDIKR
notes: IgG1 full-length variant of IP10.1
In the assay with human IP-10 [8], B3 yielded a Kd of 1.64 nM, a koff of 1.7e-05 s⁻¹ and an on-rate constant (kon) of 9300 M⁻¹ s⁻¹.

B4: IP10.51 (antibody, human IgG1, kappa, V domains shown)
VH: B1 VH with A23T, E31D, F53Y, A54G, N104S
VL: not shown
notes: IgG1 full-length variant of IP10.1; also called IP10.51-g1f
With B4, in the assay with human IP-10 [8], the Kd was 0.96 nM.

B5: IP10.48 (antibody, human IgG1, kappa, V domains shown)
VH: B1 VH with E31N, G52D, L56I, I57N, G59Y, A101E, Y107F, Y108F
VL: not shown
notes: IgG1 full-length variant of IP10.1; also called IP10.48-g1f
In the assay with human IP-10 [8], B5 came in with a Kd of 0.34 nM, a koff of 5e-06 s⁻¹ and an on-rate (kon) of 14100 M⁻¹ s⁻¹.

B6: IP10.47 (antibody, human IgG1, kappa, V domains shown)
VH: B1 VH with E31T, Y32H, A54G, G59S, A101D, N104S, I105L, Y107F
VL: not shown
notes: IgG1 full-length variant of IP10.1; also called IP10.47-g1f
In the assay with human IP-10 [8], B6 gave a Kd of 0.56 nM, a koff of 1.4e-05 s⁻¹ and an on-rate constant (kon) of 24000 M⁻¹ s⁻¹.

B7: IP10.52 (antibody, human IgG1, kappa, V domains shown)
VH: B1 VH with A23T, E31D, F53Y, A54G, N104S, I105V
VL: not shown
notes: IgG1 full-length variant of IP10.1; also called IP10.52-g1f
In the case of B7, the binding result in the assay with human ITAC was “no binding”. In the assay with human MIG [14], this molecule yielded a Kd of 73.5 nM. In addition, in the assay with human IP-10 [4], binding was characterised by a dissociation constant (Kd) of 0.04 nM, the off-rate (koff) is 5e-07 s⁻¹ and the kon came to 13000 M⁻¹ s⁻¹. The Kd with cynomolgus monkey IP-10 [5] stood at 1.43 nM.

B8: IP10.53 (antibody, human IgG1, kappa, V domains shown)
VH: B1 VH with E31D, G52S, F53H, A54N, L56A, A101D
VL: not shown
notes: IgG1 full-length variant of IP10.1; also called IP10.53-g1f
In the case of B8, in the assay with human ITAC, the binding result is “no binding”. Further, the Kd with human MIG [14] amounted to 54.3 nM; with cynomolgus monkey IP-10 [5], 0.22 nM.

B9: IP10.49 (antibody, human IgG1, kappa, V domains shown)
VH: B1 VH with A23T, E31Q, Y32S, A54G, G59S, A101D, N104G
VL: not shown
notes: IgG1 full-length variant of IP10.1; also called IP10.49-g1f
Consider B9, for which, in the assay with human IP-10 [8], binding was characterised by a dissociation constant (Kd) of 0.41 nM, the koff stood at 6e-06 s⁻¹ and the on-rate constant (kon) was found to be 14700 M⁻¹ s⁻¹.

B10: IP10.45 (antibody, human IgG1, kappa, V domains shown)
VH: B1 VH with A23T, E31K, Y32H, L56V, G59S, A101E, Y107F
VL: not shown
notes: IgG1 full-length variant of IP10.1; also called IP10.45-g1f
As to B10, the binding result with human MIG [15] and with human ITAC was “no binding” each time. The molecule further registered a Kd in the assay with cynomolgus monkey IP-10 [5] of 4.74 nM.

B11: IP10.54 (antibody, human IgG1, kappa, V domains shown)
VH: B1 VH with A23T, E31Q, G52S, F53Y, A54G, L56D, G59Y, Q82E, V93I, A101E
VL: not shown
notes: IgG1 full-length variant of IP10.1; also called IP10.54-g1f
In the case of B11, in the assay with human IP-10 [8], binding was characterised by a dissociation constant (Kd) of 0.25 nM, the koff was determined as 4e-06 s⁻¹ and the on-rate (kon) came to 15400 M⁻¹ s⁻¹.

B12: IP10.1 (antibody, human IgG1, kappa, V domains shown)
VH: QMQLVESGGGVVQPGRSLRLSCTASGFTFSNNGMHWVRQAPGKGLEWVAVIWFDGMNKFYVDSVKGRFTISRDNSKNTLYLEMNSLRAEDTAIYYCAREGDGSGIYYYYGMDVWGQGTTVTVSS
VL: not shown
notes: Human IgG1 (g1f) full-length antibody; Parent antibody of all variants; also called 6A5; antibody 6A5
Take B12: the binding result with human MIG [15], in the assay with human ITAC and with mouse IP-10 was “no binding” each time. Further, the “estimated t1/2 (half-life of IP-10 association)” value in the assay with human IP-10 [3] is roughly 3 h. Also, the dissociation constant Kd with human IP-10 [4] was 8.53 nM; in the assay with cynomolgus monkey IP-10 [5] it was 14.9 nM; with human IP-10 [6], roughly 5 nM; in the assay with human IP-10 [8], 4.18 nM; with human IP-10 [16] it was 6.27 nM; in the assay with cynomolgus monkey IP-10 [13], 6.5 nM. Moreover, the koff amounted to 6.8e-05 s⁻¹ with human IP-10 [4], 0.000151 s⁻¹ with human IP-10 [8] and 0.000138 s⁻¹ in the assay with human IP-10 [16]. In addition, the figures for the kon with human IP-10 [4], with human IP-10 [8] and with human IP-10 [16] were 8000 M⁻¹ s⁻¹, 36200 M⁻¹ s⁻¹ and 22000 M⁻¹ s⁻¹, respectively.
